Results on 2 molecules are retold here after patent publication US9429584B2, “Antibody against insoluble fibrin” (National Cancer Center, priority 2013, dated 2016).

The target of the assay is T1, insoluble fibrin (Homo sapiens, UniProt P02675+P02679).
T1 sequence (P02675 45-491 limits assumed): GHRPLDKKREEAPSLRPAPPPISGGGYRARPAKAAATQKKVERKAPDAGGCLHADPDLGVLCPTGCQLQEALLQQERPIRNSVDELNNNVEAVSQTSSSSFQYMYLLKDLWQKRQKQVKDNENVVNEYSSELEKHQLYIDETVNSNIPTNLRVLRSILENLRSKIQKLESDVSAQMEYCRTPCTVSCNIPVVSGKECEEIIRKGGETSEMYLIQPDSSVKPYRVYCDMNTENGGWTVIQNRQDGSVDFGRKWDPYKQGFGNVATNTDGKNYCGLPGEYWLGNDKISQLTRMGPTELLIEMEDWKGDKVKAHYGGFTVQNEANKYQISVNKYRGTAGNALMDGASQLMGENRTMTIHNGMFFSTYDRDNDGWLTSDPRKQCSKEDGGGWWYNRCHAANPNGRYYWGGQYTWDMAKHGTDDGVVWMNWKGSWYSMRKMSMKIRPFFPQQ
T1 sequence (P02679 27-453): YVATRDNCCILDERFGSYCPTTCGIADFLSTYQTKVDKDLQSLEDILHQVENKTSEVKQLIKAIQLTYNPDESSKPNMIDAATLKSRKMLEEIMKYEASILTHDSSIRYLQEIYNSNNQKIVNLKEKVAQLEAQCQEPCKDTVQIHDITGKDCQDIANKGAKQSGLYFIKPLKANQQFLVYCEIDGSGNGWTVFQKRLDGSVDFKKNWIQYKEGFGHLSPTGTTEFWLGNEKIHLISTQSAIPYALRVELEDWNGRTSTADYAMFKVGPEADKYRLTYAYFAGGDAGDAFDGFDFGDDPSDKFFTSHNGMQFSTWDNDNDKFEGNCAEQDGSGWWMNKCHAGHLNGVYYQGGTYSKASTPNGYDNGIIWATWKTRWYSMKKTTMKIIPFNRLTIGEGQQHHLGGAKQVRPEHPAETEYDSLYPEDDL
Briefly: ELISA method of Example 2, fibrin plate. In kind it is binding. Conditions: antibody 10 μg/mL. On the procedure: Each of the antibody solutions (100 μL each) at 10 μg/mL was added to the fibrin plate and the fibrinogen plate, and allowed to stand at room temperature for 1 hour. After washing with TBS-T, Bethyl Anti-Human IgG-HRP (×1000 dilution) or Bethyl Anti-Mouse IgG-HRP (×10000 dilution) was added as a secondary antibody. Then, after washing with TBS-T, colorimetry was conducted with OPD for 10 minutes, and measurement was conducted at an absorption wavelength of 492 nm.

B1: Fib-0355 antibody: monoclonal anti-β chain antibody produced by hybridoma Fib-0355; L chain variable region SEQ ID NO: 11, H chain variable region SEQ ID NO: 15 (antibody, listed as Mus musculus, V domains shown)
VH: GPELKKPGETVKISCKASGYTFTNYGMNWVKQAPGKGLKWMGWINTNTGEPTYAEEFKGRFAFSLETSASTAYLQINNLKNEDTATYFCARLLDYWGQGTTLTVSS
VL: PSSLAVSAGEKVTMSCKSSQSVLYSSNQKNYLAWYQQKPGQSPKLLIYWASTRESGVPDRFTGSGSGTDFTLTISSVQAEDLAVYYCQQYLSSYTFGG
modifications: SITE (1)..(106) Variable Region of Heavy Chain (Fib-0355); SITE (1)..(98) Variable Region of Light Chain(Fib-0355)
Consider B1, for which the “affinity for insoluble fibrin (absorbance at 492 nm) relative to that of the 102-10 antibody” value stood at 12 times.

B2: 34-105 antibody: monoclonal anti-γ chain antibody produced by hybridoma 34-105; L chain variable region SEQ ID NO: 3, H chain variable region SEQ ID NO: 7 (antibody, listed as Mus musculus, V domains shown)
VH: EVKLQESGGGLVKPGGSLKLSCAASGFTFSSYAMSWVRQTPEKRLEWVAAISSGGTTYYPDSVKGRFTISRDNARNILYLQMSSLRSEDTAMYYCVRGGTIGAYWGQGTLVTVSA
VL: DIVITQSPASLAVSLGQRATISYRASKSVSTSGYSYMHWNQQKPGQPPRLLIYLVSNLESGVPARFSGSGSGTDFTLNIHPVEEEDAATYYCQHIRELTRSEGGPSWK
modifications: SITE (1)..(115) Variable Region of Heavy Chain (34-105); SITE (1)..(108) Variable Region of Light Chain(34-105)
In the case of B2, the “affinity for insoluble fibrin (absorbance at 492 nm) relative to that of the 102-10 antibody” value is on record as 16 times and the “ratio of the affinity for insoluble fibrin to the affinity for fibrinogen (absorbance at 492 nm)” value is listed as 25 times.
